Numbering of substitutions follows the chain as printed.
Legend:
rat B7H3-His (rat) [1] = target: T1, rat B7H3-His (rat) (UniProt Q7TPB4); assay: ELISA; row Rat; well 2 of 3
T1 sequence (looked up): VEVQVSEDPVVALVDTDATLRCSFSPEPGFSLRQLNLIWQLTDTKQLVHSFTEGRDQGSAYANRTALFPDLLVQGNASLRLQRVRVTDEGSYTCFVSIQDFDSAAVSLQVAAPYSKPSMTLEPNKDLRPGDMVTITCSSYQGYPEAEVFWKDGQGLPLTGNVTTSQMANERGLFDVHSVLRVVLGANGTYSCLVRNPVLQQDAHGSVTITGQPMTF

Irrelevant antigen [2] = assay: ELISA; row Irrelevant antigen; well 1 of 3
monkey B7H3-His (monkey) [3] = assay: ELISA; row Monkey; well 3 of 3
monkey B7H3-His (monkey) [4] = assay: ELISA; row Monkey; well 2 of 3
mouse B7H3-His (mouse) [5] = target: T2, mouse B7H3-His (mouse) (UniProt Q8VE98); assay: ELISA; row Mouse-1 (msB7H3); well 2 of 3
T2 sequence (looked up): T1 sequence (looked up) with R33A, A62S, D131N, L156V, M214L

hB7H3-His (human) [6] = target: hB7H3-His (human) (UniProt Q5ZPR3); assay: ELISA; row B7H3-his; well 1 of 3
hB7H3-His (human), sequence (Q5ZPR3 29-461 limits assumed): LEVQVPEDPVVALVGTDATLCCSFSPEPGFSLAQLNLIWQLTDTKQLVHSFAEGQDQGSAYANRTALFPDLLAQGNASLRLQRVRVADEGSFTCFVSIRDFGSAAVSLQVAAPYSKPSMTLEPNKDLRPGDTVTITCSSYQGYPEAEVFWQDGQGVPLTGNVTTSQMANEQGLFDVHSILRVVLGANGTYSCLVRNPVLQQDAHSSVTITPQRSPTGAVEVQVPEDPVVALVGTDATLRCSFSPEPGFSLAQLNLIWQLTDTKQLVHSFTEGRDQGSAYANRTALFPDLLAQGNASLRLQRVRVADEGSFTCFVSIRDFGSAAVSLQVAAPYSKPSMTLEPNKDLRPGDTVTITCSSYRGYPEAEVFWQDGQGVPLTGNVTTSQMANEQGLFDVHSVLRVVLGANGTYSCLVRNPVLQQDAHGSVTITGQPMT

mouse B7H3-His (mouse) [7] = target: T2, mouse B7H3-His (mouse); assay: ELISA; row Mouse-2 (mB7H3); well 1 of 3
[8] = target: recombinant human B7H3-Fc protein (human) (UniProt Q5ZPR3); assay: ELISA; row B7H3-Fc; well 1 of 3
recombinant human B7H3-Fc protein (human), sequence (Q5ZPR3 29-466 limits assumed): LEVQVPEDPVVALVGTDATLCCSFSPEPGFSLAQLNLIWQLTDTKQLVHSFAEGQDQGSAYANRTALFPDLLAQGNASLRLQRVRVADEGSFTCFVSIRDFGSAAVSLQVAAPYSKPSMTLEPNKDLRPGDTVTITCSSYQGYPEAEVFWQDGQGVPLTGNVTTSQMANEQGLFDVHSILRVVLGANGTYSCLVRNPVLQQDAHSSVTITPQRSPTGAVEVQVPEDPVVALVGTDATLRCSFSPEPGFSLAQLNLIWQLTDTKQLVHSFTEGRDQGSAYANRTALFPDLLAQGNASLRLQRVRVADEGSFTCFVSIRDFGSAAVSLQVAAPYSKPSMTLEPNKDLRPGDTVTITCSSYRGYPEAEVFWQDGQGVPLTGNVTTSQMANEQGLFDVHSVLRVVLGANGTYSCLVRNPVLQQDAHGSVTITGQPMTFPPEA

human B7H3 (human) [9] = target: human B7H3 (human) (UniProt Q5ZPR3); assay: ELISA; row Human; well 2 of 3
human B7H3 (human), sequence (Q5ZPR3 29-466 limits assumed): as above

Irrelevant antigen [10] = assay: ELISA; row Irrelevant antigen; well 2 of 3
mouse B7H3-His (mouse) [11] = target: T2, mouse B7H3-His (mouse); assay: ELISA; row Mouse-2 (mB7H3); well 3 of 3
Irrelevant antigen [12] = assay: ELISA; row Irrelevant antigen; well 3 of 3
human B7H3 (human) [13] = target: human B7H3 (human) (UniProt Q5ZPR3); assay: ELISA; row Human; well 1 of 3
[14] = target: recombinant human B7H3-Fc protein (human) (UniProt Q5ZPR3); assay: ELISA; row B7H3-Fc; well 2 of 3
PD-L1 [15] = assay: ELISA; row PDL1-Fc; well 1 of 3
PD-L1, sequence (Q9NZQ7 19-238): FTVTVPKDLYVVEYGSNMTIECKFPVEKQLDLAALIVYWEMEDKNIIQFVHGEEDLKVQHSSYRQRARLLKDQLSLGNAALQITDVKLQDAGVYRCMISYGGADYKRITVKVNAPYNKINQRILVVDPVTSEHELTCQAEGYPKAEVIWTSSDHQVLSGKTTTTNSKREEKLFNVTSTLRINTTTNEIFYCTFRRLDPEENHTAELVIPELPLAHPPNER

PD-L1 [16] = assay: ELISA; row PDL1-Fc; well 2 of 3
B7H3 R&D [17] = assay: ELISA; row B7H3 R&D; well 1 of 3
HN3-Fc [18] = assay: ELISA; row HN3-Fc; well 1 of 3
HN3-Fc [19] = assay: ELISA; row HN3-Fc; well 3 of 3
[20] = target: recombinant human B7H3-Fc protein (human) (UniProt Q5ZPR3); assay: ELISA; row B7H3-Fc; well 3 of 3
PD-L1 [21] = assay: ELISA; row PDL1-Fc; well 3 of 3
hB7H3-His (human) [22] = target: hB7H3-His (human) (UniProt Q5ZPR3); assay: ELISA; row B7H3-his; well 3 of 3
mouse B7H3-His (mouse) [23] = target: T2, mouse B7H3-His (mouse); assay: ELISA; row Mouse-1 (msB7H3); well 1 of 3
HN3-Fc [24] = assay: ELISA; row HN3-Fc; well 2 of 3
rat B7H3-His (rat) [25] = target: T1, rat B7H3-His (rat); assay: ELISA; row Rat; well 1 of 3
B7H3 R&D [26] = assay: ELISA; row B7H3 R&D; well 3 of 3
mouse B7H3-His (mouse) [27] = target: T2, mouse B7H3-His (mouse); assay: ELISA; row Mouse-2 (mB7H3); well 2 of 3
mouse B7H3-His (mouse) [28] = target: T2, mouse B7H3-His (mouse); assay: ELISA; row Mouse-1 (msB7H3); well 3 of 3
monkey B7H3-His (monkey) [29] = assay: ELISA; row Monkey; well 1 of 3
rat B7H3-His (rat) [30] = target: T1, rat B7H3-His (rat); assay: ELISA; row Rat; well 3 of 3
human B7H3 (human) [31] = target: human B7H3 (human) (UniProt Q5ZPR3); assay: ELISA; row Human; well 3 of 3
B7H3 R&D [32] = assay: ELISA; row B7H3 R&D; well 2 of 3
hB7H3-His (human) [33] = target: hB7H3-His (human) (UniProt Q5ZPR3); assay: ELISA; row B7H3-his; well 2 of 3

Substance: commercial anti-human B7H3 hybridoma antibody 376.96
- ELISA reading (name not given) (rat B7H3-His (rat) [1]): 1.01
- ELISA reading (name not given) (Irrelevant antigen [2]): 0.0531
- ELISA reading (name not given) (monkey B7H3-His (monkey) [3]): 1.65
- ELISA reading (name not given) (monkey B7H3-His (monkey) [4]): 1.59
- ELISA reading (name not given) (mouse B7H3-His (mouse) [5]): 0.156
- ELISA reading (name not given) (hB7H3-His (human) [6]): 0.811
- ELISA reading (name not given) (mouse B7H3-His (mouse) [7]): 0.157
- ELISA reading (name not given) [8]: 1.61
- ELISA reading (name not given) (human B7H3 (human) [9]): 1.57
- ELISA reading (name not given) (Irrelevant antigen [10]): 0.0634
- ELISA reading (name not given) (mouse B7H3-His (mouse) [11]): 0.184
- ELISA reading (name not given) (Irrelevant antigen [12]): 0.0624
- ELISA reading (name not given) (human B7H3 (human) [13]): 1.48
- ELISA reading (name not given) [14]: 1.59
- ELISA reading (name not given) (PD-L1 [15]): 0.0652
- ELISA reading (name not given) (PD-L1 [16]): 0.0812
- ELISA reading (name not given) (B7H3 R&D [17]): 0.991
- ELISA reading (name not given) (HN3-Fc [18]): 0.0545
- ELISA reading (name not given) (HN3-Fc [19]): 0.0521
- ELISA reading (name not given) [20]: 1.59
- ELISA reading (name not given) (PD-L1 [21]): 0.0749
- ELISA reading (name not given) (hB7H3-His (human) [22]): 0.813
- ELISA reading (name not given) (mouse B7H3-His (mouse) [23]): 0.14
- ELISA reading (name not given) (HN3-Fc [24]): 0.0541
- ELISA reading (name not given) (rat B7H3-His (rat) [25]): 0.981
- ELISA reading (name not given) (B7H3 R&D [26]): 1.07
- ELISA reading (name not given) (mouse B7H3-His (mouse) [27]): 0.145
- ELISA reading (name not given) (mouse B7H3-His (mouse) [28]): 0.133
- ELISA reading (name not given) (monkey B7H3-His (monkey) [29]): 1.59
- ELISA reading (name not given) (rat B7H3-His (rat) [30]): 1.06
- ELISA reading (name not given) (human B7H3 (human) [31]): 1.44
- ELISA reading (name not given) (B7H3 R&D [32]): 0.993
- ELISA reading (name not given) (hB7H3-His (human) [33]): 0.812

From patent US20220380471A1
